From paper PMC10979099 (The Journal of Biological Chemistry, 2024)

Target: Sra1 (human, UniProt Q7L576 1-1253)
Test: reconstitution and co-purification

Chain of Sra1 (Q7L576 whole entry): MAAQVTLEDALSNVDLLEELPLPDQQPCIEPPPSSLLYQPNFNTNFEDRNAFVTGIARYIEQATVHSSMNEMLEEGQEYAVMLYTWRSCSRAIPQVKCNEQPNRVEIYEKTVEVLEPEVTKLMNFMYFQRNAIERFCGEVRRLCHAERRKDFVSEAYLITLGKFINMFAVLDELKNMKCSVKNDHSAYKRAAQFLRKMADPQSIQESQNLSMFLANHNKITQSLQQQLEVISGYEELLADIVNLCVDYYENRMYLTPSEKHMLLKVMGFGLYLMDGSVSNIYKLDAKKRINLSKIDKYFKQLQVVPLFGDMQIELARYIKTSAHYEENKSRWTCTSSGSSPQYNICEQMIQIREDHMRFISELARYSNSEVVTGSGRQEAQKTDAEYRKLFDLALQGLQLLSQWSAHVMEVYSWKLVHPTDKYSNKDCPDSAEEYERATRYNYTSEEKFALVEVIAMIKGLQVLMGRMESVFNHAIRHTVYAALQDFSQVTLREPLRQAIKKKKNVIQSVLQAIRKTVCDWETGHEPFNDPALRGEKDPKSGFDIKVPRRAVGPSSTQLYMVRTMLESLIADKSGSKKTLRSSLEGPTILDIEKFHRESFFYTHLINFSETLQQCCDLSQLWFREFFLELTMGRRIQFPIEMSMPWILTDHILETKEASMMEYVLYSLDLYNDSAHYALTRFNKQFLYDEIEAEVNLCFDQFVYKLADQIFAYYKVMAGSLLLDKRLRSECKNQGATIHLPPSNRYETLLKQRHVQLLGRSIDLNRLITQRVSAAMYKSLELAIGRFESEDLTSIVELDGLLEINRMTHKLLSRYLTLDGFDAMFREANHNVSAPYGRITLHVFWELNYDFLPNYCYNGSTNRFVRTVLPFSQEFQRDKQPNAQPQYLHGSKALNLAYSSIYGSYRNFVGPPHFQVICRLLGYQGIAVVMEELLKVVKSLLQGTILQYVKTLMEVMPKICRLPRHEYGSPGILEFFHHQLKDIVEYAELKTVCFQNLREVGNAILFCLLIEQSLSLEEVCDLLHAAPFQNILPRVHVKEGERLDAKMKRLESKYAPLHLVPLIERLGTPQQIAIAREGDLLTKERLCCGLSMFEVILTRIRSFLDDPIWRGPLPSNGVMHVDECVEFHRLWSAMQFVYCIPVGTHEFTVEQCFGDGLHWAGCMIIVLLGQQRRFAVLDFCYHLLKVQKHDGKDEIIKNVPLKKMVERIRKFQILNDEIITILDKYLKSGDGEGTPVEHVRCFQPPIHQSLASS

binding result: binds
B1: Nap1 (natural protein)
chain: MSRSVLQPSQQKLAEKLTILNDRGVGMLTRLYNIKKACGDPKAKPSYLIDKNLESAVKFIVRKFPAVETRNNNQQLAQLQKEKSEILKNLALYYFTFVDVMEFKDHVCELLNTIDVCQVFFDITVNFDLTKNYLDLIITYTTLMILLSRIEERKAIIGLYNYAHEMTHGASDREYPRLGQMIVDYENPLKKMMEEFVPHSKSLSDALISLQMVYPRRNLSADQWRNAQLLSLISAPSTMLNPAQSDTMPCEYLSLDAMEKWIIFGFILCHGILNTDATALNLWKLALQSSSCLSLFRDEVFHIHKAAEDLFVNIRGYNKRINDIRECKEAAVSHAGSMHRERRKFLRSALKELATVLSDQPGLLGPKALFVFMALSFARDEIIWLLRHADNMPKKSADDFIDKHIAELIFYMEELRAHVRKYGPVMQRYYVQYLSGFDAVVLNELVQNLSVCPEDESIIMSSFVNTMTSLSVKQVEDGEVFDFRGMRLDWFRLQAYTSVSKASLGLADHRELGKMMNTIIFHTKMVDSLVEMLVETSDLSIFCFYSRAFEKMFQQCLELPSQSRYSIAFPLLCTHFMSCTHELCPEERHHIGDRSLSLCNMFLDEMAKQARNLITDICTEQCTLSDQLLPKHCAKTISQAVNKKSKKQTGKKGEPEREKPGVESMRKNRLVVTNLDKLHTALSELCFSINYVPNMVVWEHTFTPREYLTSHLEIRFTKSIVGMTMYNQATQEIAKPSELLTSVRAYMTVLQSIENYVQIDITRVFNNVLLQQTQHLDSHGEPTITSLYTNWYLETLLRQVSNGHIAYFPAMKAFVNLPTENELTFNAEEYSDISEMRSLSELLGPYGMKFLSESLMWHISSQVAELKKLVVENVDVLTQMRTSFDKPDQMAALFKRLSSVDSVLKRMTIIGVILSFRSLAQEALRDVLSYHIPFLVSSIEDFKDHIPRETDMKVAMNVYELSSAAGLPCEIDPALVVALSSQKSENISPEEEYKIACLLMVFVAVSLPTLASNVMSQYSPAIEGHCNNIHCLAKAINQIAAALFTIHKGSIEDRLKEFLALASSSLLKIGQETDKTTTRNRESVYLLLDMIVQESPFLTMDLLESCFPYVLLRNAYHAVYKQSVTSSA
